Results taken from patent publication US20200095333A1 (published 2020).
Positions count from the first letter of the chain named. Numbers in names are those of the source.

Experiments:
[1] = molecular target: T1, human serum albumin (HSA) (human, UniProt P02768 25-609); assay: HSA binding class (+ = 0.1-0.4)
T1 construct: also called human albumin; HRP-human albumin

[2] = molecular target: T1, human serum albumin (HSA); assay: HSA binding class (+++ = 0.7-1.0)
[3] = molecular target: T1, human serum albumin (HSA); assay: albumin binding of ABD variants
[4] = molecular target: T1, human serum albumin (HSA); assay: deimmunized ABD ELISA (FIG. 57)
[5] = molecular target: T2, sCD32B (soluble CD32B, FcgammaRIIB) (human, UniProt P31994 43-217); assay: sandwich ELISA, CD32B coat, HRP-CD16 probe
T2 construct: extracellular domain; also called soluble CD32B ectodomain
T2 sequence: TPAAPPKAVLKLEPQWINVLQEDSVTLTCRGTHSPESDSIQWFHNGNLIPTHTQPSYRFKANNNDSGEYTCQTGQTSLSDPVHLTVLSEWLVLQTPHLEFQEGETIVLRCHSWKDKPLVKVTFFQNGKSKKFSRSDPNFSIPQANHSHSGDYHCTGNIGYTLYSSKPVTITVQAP

[6] = molecular target: T3, sCD16A (soluble CD16A, FcgammaRIIIA) (human, UniProt P08637 17-208); assay: sandwich ELISA, CD32B coat, HRP-CD16 probe
T3 construct: extracellular domain; given only as soluble; used immobilised (SPR), coated, or biotin/HRP-labelled as probe (ELISA); also called CD16 antigen; sCD16A-Biotin

[7] = molecular target: T3, sCD16A (soluble CD16A, FcgammaRIIIA); assay: SPR (BIAcore), receptor immobilised, diabody 6.25-200 nM
[8] = molecular target: T2, sCD32B (soluble CD32B, FcgammaRIIB); assay: sandwich ELISA, CD32B coat, CD16A probe
[9] = molecular target: T3, sCD16A (soluble CD16A, FcgammaRIIIA); assay: sandwich ELISA, CD32B coat, CD16A probe
mCD32B (murine CD32B) = molecular target: T4, mCD32B (murine CD32B) (murine, UniProt P08101 30-210); assay: mCD32-hCD16A binding ELISA
T4 sequence: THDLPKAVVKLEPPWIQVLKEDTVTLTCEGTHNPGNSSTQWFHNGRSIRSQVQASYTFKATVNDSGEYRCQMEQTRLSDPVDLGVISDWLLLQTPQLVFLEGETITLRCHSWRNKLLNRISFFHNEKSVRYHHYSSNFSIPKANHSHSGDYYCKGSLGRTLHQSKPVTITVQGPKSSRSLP

[10] = molecular target: T3, sCD16A (soluble CD16A, FcgammaRIIIA); assay: mCD32-hCD16A binding ELISA
[11] = molecular target: T1, human serum albumin (HSA); assay: ELISA, HSA coat, biotinylated sCD32B detection
soluble CD16A(158F) = molecular target: T5, soluble CD16A(158F) (human, UniProt P08637 17-208); assay: SPR, HSA immobilised, ABD-DART then 200 nM CD32B and 200 nM CD16A(F158)
T5 construct: extracellular domain; also called CD16A(F158); sCD16A

[12] = molecular target: T2, sCD32B (soluble CD32B, FcgammaRIIB); assay: dual ELISA, CD16 coat, biotinylated sCD32B detection
[13] = molecular target: T3, sCD16A (soluble CD16A, FcgammaRIIIA); assay: as above

T3 sequence (P08637 17-208): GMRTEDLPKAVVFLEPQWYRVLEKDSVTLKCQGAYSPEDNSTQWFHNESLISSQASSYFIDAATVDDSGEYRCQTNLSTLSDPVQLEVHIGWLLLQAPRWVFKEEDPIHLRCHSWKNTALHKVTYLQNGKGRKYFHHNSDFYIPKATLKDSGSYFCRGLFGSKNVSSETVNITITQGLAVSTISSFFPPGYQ
T5 sequence (P08637 17-208): as above

LAEAKVLANRELDKYGVSDYYKNLADNAKTAEGVKALIDEILAALP (other, also called 65A/66D/71A) [ABD I65A/N66D/V71A]
HSA binding [1]: 0.1 to 0.4

LAEAKVLANRELDKYGVSDYYKNAIDNAKTAEGVKALIDEILAALP (other, also called 64A/66D/71A) [ABD L64A/N66D/V71A]
HSA binding [1]: 0.1 to 0.4

LAEAKVLANRELDKYGVSDYYKNGIDNAKTAEGVKALIDEILAALP (other, also called 64G/66D/71A) [ABD L64G/N66D/V71A]
HSA binding [1]: 0.1 to 0.4

LAEAKVLANRELDKYGVSDYYKNLIDNAKTVEGVKALIDEILAALP (other) [ABD N66D]
HSA binding [2]: 0.7 to 1

LAEAKVLANRELDKYGVSDYYKNLIDNAKSAEGVKALIDEILAALP (other) [ABD N66D/T70S/V71A (ABD (DSA))]
binding result [3]: binds

LAEAKVLANRELDKYGVSDYYKNLIENAKTVEGVKALIDEILAALP (other) [ABD N66E]
HSA binding [2]: 0.7 to 1

LAEAKVLANRELDKYGVSDYYKNAANNAKTVEGVKALIAEILAALP (other) [variant ABD L64A, I65A and D79A]
binding result [4]: binds

LAEAKVLANRELDKYGVSDYYKNLISNAKSVEGVKALIAEILAALP (other) [variant ABD N66S, T70S and D79A]
binding result [4]: binds

B1: product of co-expression of constructs 7 and 8 (pMGX0677+pMGX0678), tetrameric IgG-like diabody (bispecific antibody)
chain 1: EIVLTQSPDFQSVTPKEKVTFTCRTSQSIGTNIHWYQQKPDQSPKLLIKEVSESISGVPSRFSGSGSGTDFTLTINSLEAEDAATYYCQQSNTWPFTFGGGTKVEIKGGGSGGGGQVTLRESGPALVKPTQTLTLTCTFSGFSLSTSGMGVGWIRQPPGKALEWLAHIWWDDDKRYNPALKSRLTISKDTSKNQVVLTMTNMDPVDTATYYCAQINPAWFAYWGQGTLVTVSSLGGCFNRGEC
chain 2: not shown
binding result [5]: binds
binding result [6]: binds

B2: h3G8 CMD (covalent monospecific diabody, construct 3) (other)
chain: DIVMTQSPDSLAVSLGERATINCKASQSVDFDGDSFMNWYQQKPGQPPKLLIYTTSNLESGVPDRFSGSGSGTDFTLTISSLQAEDVAVYYCQQSNEDPYTFGQGTKLEIKGGGSGGGGQVTLRESGPALVKPTQTLTLTCTFSGFSLSTSGMGVGWIRQPPGKALEWLAHIWWDDDKRYNPALKSRLTISKDTSKNQVVLTMTNMDPVDTATYYCAQINPAWFAYWGQGTLVTVSSLGGC
modifications: covalent homodimer; interchain disulfide through the C-terminal LGGC cysteines
notes: covalent homodimer diabody; also called h3G8 diabody
Kd [7]: 18 nM

B3: product of constructs 1 and 9 (pMGX0669+pMGX0719) (bispecific antibody)
chain 1: EIVLTQSPDFQSVTPKEKVTFTCRTSQSIGTNIHWYQQKPDQSPKLLIKEVSESISGVPSRFSGSGSGTDFTLTINSLEAEDAATYYCQQSNTWPFTFGGGTKVEIKGGGSGGGGQVTLRESGPALVKPTQTLTLTCTFSGFSLSTSGMGVGWIRQPPGKALEWLAHIWWDDDKRYNPALKSRLTISKDTSKNQVVLTMTNMDPVDTATYYCAQINPAWFAYWGQGTLVTVSSLGGC
chain 2: not shown
notes: hinge-Fc at the N-terminus of the heavier chain; also called constructs 9+1; copies: 2 + 2
binding result [5]: binds
binding result [6]: binds

B4: product of constructs 1 and 10 (pMGX0669+pMGX0718) (bispecific antibody)
chain 1: B3 chain 1
chain 2: not shown
notes: Fc at the N-terminus of the heavier chain; also called constructs 10+1; copies: 2 + 2
binding result [5]: binds
binding result [6]: binds

B5: product of constructs 11 and 12 (bispecific antibody)
chain 1: not shown
chain 2: DIVMTQSPDSLAVSLGERATINCKASQSVDFDGDSFMNWYQQKPGQPPKLLIYTTSNLESGVPDRFSGSGSGTDFTLTISSLQAEDVAVYYCQQSNEDPYTFGQGTKLEIKGGGSGGGGQVQLVQSGAEVKKPGASVKVSCKASGYTFTNYWIHWVRQAPGQCLEWIGVIDPSDTYPNYNKKFKGRVTMTVVVSTSTAYMELRSLRSDDTAVYYCARNGDSDYYSGMDYWGQGTTVTVSSFNRGEC
notes: C-terminal hinge-Fc; engineered cysteines G105C (2B6 VL) and G44C (2B6 VH); copies: 2 + 2
binding result [5]: binds
binding result [6]: binds

B6: product of constructs 15 and 16 (pMGX0752+pMGX0753) (bispecific antibody)
chain 1: EIVLTQSPDFQSVTPKEKVTFTCRTSQSIGTNIHWYQQKPDQSPKLLIKEVSESISGVPSRFSGSGSGTDFTLTINSLEAEDAATYYCQQSNTWPFTFGGGTKVEIKGGGSGGGGQVTLRESGPALVKPTQTLTLTCTFSGFSLSTSGMGVGWIRQPPGKALEWLAHIWWDDDKRYNPALKSRLTISKDTSKNQVVLTMTNMDPVDTATYYCAQINPAWFAYWGQGTLVTVSSFNRGEC
chain 2: B5 chain 2 with C163G, F241V, N242E, R243P, G244K, E245S
notes: Hu2B6VL-Hu3G8VH-FNRGEC and Hu3G8VL-Hu2B6VH-VEPKSC; also called construct 15/16 combination
binding result [8]: binds
binding result [9]: binds

B7: Ig-like tetravalent DART (2.4G2-3G8-hKappa / 3G8-2.4G2-hG1) (bispecific antibody)
chain 1: DVQMTQSPSNLAASPGESVSINCKASESISKYLAWYLQKPGKANKLLMYDGSTLQSGIPSRFSGSGSGTDFTLTIRSLEPEDFGLYYCQQHYEYPATFGSGTKLEIKGGGSGGGGQVTLKESGPGILQPSQTLSLTCSFSGFSLRTSGMGVGWIRQPSGKGLEWLAHIWWDDDKRYNPALKSRLTISKDTSSNQVFLKIASVDTADTATYYCAQINPAWFAYWGQGTLVTVSSLGGCGGGSRTVAAPSVFIFPPSDEQLKSGTASVVCLLNNFYPREAKVQWKVDNALQSGNSQESVTEQDSKDSTYSLSSTLTLSKADYEKHKVYACEVTHQGLSSPVTKSFNRGEC
chain 2: not shown
notes: also called Ig DART 1; Ig DART 2
binding result (mCD32B (murine CD32B)): binds
binding result [10]: binds

B8: hCD16-hCD32B ABD-DART (bispecific antibody)
chain 1: DIVMTQSPDSLAVSLGERATINCKASQSVDFDGDSFMNWYQQKPGQPPKLLIYTTSNLESGVPDRFSGSGSGTDFTLTISSLQAEDVAVYYCQQSNEDPYTFGQGTKLEIKGGGSGGGGQVQLVQSGAEVKKPGASVKVSCKASGYTFTNYWIHWVRQAPGQGLEWIGVIDPSDTYPNYNKKFKGRVTMTVVVSTSTAYMELRSLRSDDTAVYYCARNGDSDYYSGMDYWGQGTTVTVSSGGCGGGKVAALKEKVAALKEKVAALKEKVAALKEGGGNS
chain 2: EIVLTQSPDFQSVTPKEKVTFTCRTSQSIGTNIHWYQQKPDQSPKLLIKEVSESISGVPSRFSGSGSGTDFTLTINSLEAEDAATYYCQQSNTWPFTFGGGTKVEIKGGGSGGGGQVTLRESGPALVKPTQTLTLTCTFSGFSLSTSGMGVGWIRQPPGKALEWLAHIWWDDDKRYNPALKSRLTISKDTSKNQVVLTMTNMDPVDTATYYCAQINPAWFAYWGQGTLVTVSSGGCGGGEVAALEKEVAALEKEVAALEKEVAALEKGGGNSLAEAKVLANRELDKYGVSDYYKNLINNAKTVEGVKALIDEILAALP
notes: also called hCD16-hCD32B EK ABD-DART; DART ABD fusion
binding result [11]: binds
binding result (soluble CD16A(158F)): binds
binding result [12]: binds
binding result [13]: binds
